Reference: publication PMC12077208, “Cryo-EM reveals a double oligomeric ring scaffold of the CHIKV nsP3 peptide in complex with the NTF2L domain of host G3BP1” (mBio, 2025)

B1: N-terminal region of CHIKV-43, 473ITFGDFNDGEIESLSSEL490 (motif 1 and α1) (peptide)
peptide: ITFGDFNDGEIESLSSEL
notes: also called N-terminus (motif 1 and α1) of CHIKV-43
B2: C-terminal region of CHIKV-43, 491LTFGDFLPGEVDDLTDSD508 (motif 2 and α2) (peptide)
peptide: LTFGDFLPGEVDDLTDSD
notes: also called C-terminus (motif 2 and α2) of CHIKV-43

Target: T1, nuclear translocation factor 2-like (NTF2L) domain of human G3BP1 (human, UniProt Q13283-1 1-138)
T1 construct: three extra residues Gly-Ala-Ser left at the N-terminus after TEV cleavage of the 6xHis tag; complete chains (1-138) are C, G, N and R; also called G3BP1-NTF2L domain; source: E. coli BL21 (DE3), purified (Ni-NTA, TEV cleavage, second Ni-NTA, SEC); not shown: His6, N-terminal, cleaved
Assay: ITC; peptide injected into NTF2L in the cell, 20°C, 20 mM HEPES, 150 mM NaCl, pH 7.5
Conditions: both partners purified

T1 sequence (Q13283 other isoform, or with tags, fused parts or gaps): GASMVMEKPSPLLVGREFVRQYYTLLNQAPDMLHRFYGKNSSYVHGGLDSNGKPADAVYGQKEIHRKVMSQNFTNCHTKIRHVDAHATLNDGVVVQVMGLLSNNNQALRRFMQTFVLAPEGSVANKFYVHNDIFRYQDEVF

Binder	fold reduction of binding affinity against CHIKV-43 with NTF2L	stoichiometry N	Kd
ITFGDFNDGEIESLSSELLTFGDFLP [CHIKV-26 peptide (residues Ile473 to Pro498 of CHIKV nsP3, without the α2 region)]	~100 fold	1 CHIKV-26 per NTF2L (1:1)	–
B1	–	–	3400 ± 700 nM
B2	–	–	2200 ± 500 nM
